Assay results: publication doi:10.1101/2025.03.24.644915

How the values were obtained:
[1] = target: VP6 protein, rotavirus SA11 clone C4111 (simian rotavirus A strain SA11 (clone C4111)); assay: cryo-EM structure; purified TR-TLP (made in the presence of trypsin); single particle analysis with icosahedral symmetry, 3.48 Å; spike by localized reconstruction, 3D classification, optical flow (EnRICH) and LocSpiral
[2] = target: VP6 protein, rotavirus SA11 clone C4111 (simian rotavirus A strain SA11 (clone C4111)); assay: cryo-EM structure; purified NTR-TLP (made without trypsin, with leupeptin); single particle analysis with icosahedral symmetry, 3.40 Å; spike by localized reconstruction, 3D classification, optical flow (EnRICH) and LocSpiral
[3] = target: VP4 spike protein, uncleaved (NTR spike), simian rotavirus A strain SA11 clone C4111 (simian rotavirus A strain SA11 (clone C4111)); assay: as above
[4] = target: VP7 glycoprotein, rotavirus SA11 clone C4111 (simian rotavirus A strain SA11 (clone C4111)); assay: cryo-EM structure; purified TR-TLP (made in the presence of trypsin); single particle analysis with icosahedral symmetry, 3.48 Å; spike by localized reconstruction, 3D classification, optical flow (EnRICH) and LocSpiral
[5] = target: VP7 glycoprotein, rotavirus SA11 clone C4111 (simian rotavirus A strain SA11 (clone C4111)); assay: cryo-EM structure; purified NTR-TLP (made without trypsin, with leupeptin); single particle analysis with icosahedral symmetry, 3.40 Å; spike by localized reconstruction, 3D classification, optical flow (EnRICH) and LocSpiral

VP6 protein, rotavirus SA11 clone C4111 (natural protein)
stoichiometry N [1]: 3
stoichiometry N [2]: 3

VP4 spike protein, uncleaved (NTR spike), simian rotavirus A strain SA11 clone C4111 (natural protein)
stoichiometry N [3]: 3

VP7 glycoprotein, rotavirus SA11 clone C4111 (natural protein)
stoichiometry N [4]: 3
stoichiometry N [5]: 3
